Source: publication PMC4856479

Columns and labels:
[1] = target: isolated HOIP-RBR/UbcH5B~ubiquitin complex (UniProt Q96EP0); assay: ITC
[2] = target: isolated HOIP-RBR/UbcH5B~ubiquitin complex (UniProt Q96EP0); assay: AUC

Kd [1]	stoichiometry N [2]	Substance
> 50 µM		mono-ubiquitin (untagged, native N- and C-termini) (from UniProt P0CG48 1-76) (natural protein)
	2	isolated HOIP-RBR/UbcH5B~ubiquitin complex (from UniProt Q96EP0 696-1072; P62837 2-147; P0CG48 1-76)
